# Reference: the DeepSol protein solubility set
# Experiment: soluble on expression in E. coli; label from the status in PepcDB or PDB records
row,Sequence,soluble on expression in E. coli
1,SAEAEGLADWMSKLNETFTTVPLCYIAIPGSHDAMAYSLDMDSPLLEPDSLITMDLICCGCCRSIVKNWSITQDKTISEQLDAGMRYFDLRVAGKPGSSDFFFYHGLYTTITVKEAMEEVDTWLGKHSKEVVILAFSHFKEMSTEQHTKLMTFLKDHFKAKLCPDDGMPSLKDCWDKAYQVILSYDDRNRKQDRVLWPGIKYWWANNSDPNEAILFLDNKKQSGRPKGFFVAGLNLTFYGCSIFSNLTASLKEKTVTAYPLLLDWVKKQRPGSDTQSINIIAGDFFDVNSFAQDIIQLNDAKTN,soluble
2,SAHSAAAVPLGALEQGCPIRVEHDRRRRQFTVRLNGCHDRAVLLYEYVGKRIVDLQHTEVPDAYSGRGIAKHLAKAALDFVVEEDLKAHLTCWYIQKYVKENPLPQYLERLQP,soluble
3,SAKVSELYDVTWEEMRDKMRKWREENSRNSEQIVEVGEELINEYASKLGDDIWIIYEQVMIAALDYGRDDLALFCLQELRRQFPGSHRVKRLTGMRFEAMERYDDAIQLYDRILQEDPTNTAARKRKIAIRKAQGKNVEAIRELNEYLEQFVGDQEAWHELAELYINEHDYAKAAFCLEELMMTNPHNHLYCQQYAEVKYTQGGLENLELSRKYFAQALKLNNRNMRALFGLYMSASHIASNPKASAKTKKDNMKYASWAASQINRAYQFAGRSKKETKYSLKAVEDMLETLQITQS,not soluble
4,SALSCSLQGPPEGSIENLINTISRDVTTLQSYMQRRKEEYDCILKTCPVCGAVEEYAFSTVSPTATFEQLNPENRILYELQQINEQRRTLYEDIVSVQQKPECELCLLCALHESAFECGATPTANSFTSQVQSQHTQQQQTPVFSESVVPRPTILSNKTRVFVV,soluble
5,SALTIFSVKDPQNSLWHSTNAEEIQQQLNAKGVRFERWQADRDLGAAPTAETVIAAYQHAIDKLVAEKGYQSWDVISLRADNPQKEALREKFLNEHTHGEDEVRFFVEGAGLFCLHIGDEVFQVLCEKNDLISVPAHTPHWFDMGSEPNFTAIRIFDNPEGWIAQFTGDDIASAYPRLA,soluble
6,SAQFINGTINSWFGNDTHEALERSLNLSKSALNLAADNALGNAVPVQIDLIGAASLPGDMGRVLEHYAGSGFAQLALYNAASGKIEKSINPHKLDQPFPGKARWEKIQRAGSVRDLESIGGVLYAQGWLSAGTHNGRDYALFFRQPVPKGVAEDAVLIEKARAKYAELSYSKKGLQT,not soluble
7,SARRISSQGKVTISVDEYSSNPTQAFTHYNINQSRFQPPHVHMVEPLPYDAPKSVGHTRFVCVSDTHSRTDGIQMPFGDVLLHTGDFTELGLPSEVKKFNDWLGGLPYEYKVVIAGNHELTFDKDFMAELIKQDYYRFPSVSKLRSEDFDDVQSLLTNCVYLQDSEVTIKGFRIYGAPWTLWFNGWGFNLPRGQSLLDKWNQIPEDVDILMTHGPPLGFRDWLPKELQRVGCVELLNTVQKRVRPKLHAYGGIHEGYGIMTDGYTTFINSSTCTVSFQPTNPPIIFDLPNPGNS,soluble
8,SDFVITGGGIVGLATALRLQSLHPGARISVLEKEPAVARHQSGRNSGVIHAGVYYAPGSHKARFCARGVSSTRAFCDEHGIPYRICGKLIVATDAAELERMGTLETRARANGIVIERLSGEEARRLEPNIKAVGALLSPTTGIVDYGRVAERMAELFRDRGGEIRLDTEVTGGAESEAGVRLETTAGEISAGKAVFCGGLHADRLARAFGASLDFRIVPFRGEYFAIKNQPEDLVQHLIYPVPDPARPFLGVHLTRKMNGGFTVGPN,not soluble
9,SDHVDLPYNLTATKIDSDVFVVTDRDFYSSNVLVAKMLDGTVVIVSSPFENLGTQTLMDWVAKTMKPKKVVAINTHFHLDGTGGNEIYKKMGAETWSSDLTKQLRLEENKKDRIKAAEFYKNEDLKRRILSSHPVPADNVFDLKQGKVFSFSNELVEVSFPGPAHSPDNVVVYFPKKKLLFGGCMIKPKELGYLGDANVKAWPDSARRLKKFDAKIVIPGHGEWGGPEMVNKTIKVAEKAVGEMRL,soluble
10,SDQVFVMGHRYPDMDVIGSSLGVMRIAEMNNRNAYVVVEPGKMSPDVKRLMNEIEEYPNVIKNIVTPQVALENITEKSLLVVVDTHKPSMVINKELLDSATNVVVVDHHRRSEEFVGNPVLVYIEPYASSTAELITELFEYQPDLEQVGKIEATALLSGIVVDTKNFTLRTGSRTFDAASYLRSLGADTILVQQFLKEDI,not soluble
11,SDRKSDRELLYFRKKLQRKLGPISIATPEALLNAHEMLRDKMHYFIEQTQCSVGIFIHRGFKHAGKVLLLMENEGDEELLAYARSLARNNGSVLDVLPETDGLPPTLSMGENRLKAGLPSTINISSYHFMLVSYRYWLRFAGECPSVIEHLPSTIIIHHRNDRSSTLKAAMI,not soluble
12,SDRSAEFRKWKAQCLSKADLSRKGSVDEDVVELVQFLNMRDQFFTTSSCAGRILLLDRGINGFEVQKQNCCWLLVTHKLCVKDDVIVALKKANGDATLKFEPFVLHVQCRQLQDAQILHSMAIDSGFRNSGITVGKRGKTMLVVRSTHGLEVPLSHKGKLMVTEEYIDFLLNVANQKMEENKKRIERFYNCLQHALERETMTNLHPKIKEKNNSSYIHKKKRNPEKTRAQCITKESDEELENDDDDDLGINVTIFPEDY,soluble
13,SDTNSNQGIAFVHGTRDHREDAYGGYWKIDFIQSISQTLAKPENHYVVHCDFSQYMWHEDAANCVANQLLEFINDKNVSSLTVYTHSDGANIMRWILSNPTYDGRYMTLKRKISQVIAIAPSSGGTPLADEVLNGGIFETSLAWLLGYLSDAVKQQRVGDMLIYNEELLLGSKGRPSLSIPFKVIVGTDVYASPFSTSSYCNGYMLNSGLKIAKLYLNQCADGFLDCESQAQAGEVWFYDIDKTDYNLPLSHNQSRHSCFGLDQI,not soluble
14,SEGSASEVLKEWIVTGKKKNKKKKSKPKPASEASGSAPDSSKSAPIQEEQPASSEKGSINGYHVNGAINDAESVDSLSEGLETLSIDARELEDPEFAAAETLDRTGSVLENGVSDFEPKSLTAHSISNVQQSRNAAKSLSRTTPGAQVSNLGMENVPLSSTNKKLGSNIEKSVKDLQRCTVSLARYRVVVKEEMDASIKKMKQAFAELQSCLMDREVALLAEMDKVKAEAMEILLSRQKKAELLKKMTDVAVRMSEEQLVELRADIKHFVSERKYDEDLGRVARFTCDVETLKQSIDSFGQVSHPKNSYSTRSRCSLVAPVSLSGPSDGSAASSSPDASVPSLPGANKRNCAPREASAAMTNSSDRPCQAHREVFPGNRRGGQGYRAQSQKTADPSNPGRHDSVGRYRNSSWYSSGPRYQGVPPQAPGNAGERSRPYSAGTNGTGAISEPSPPKPSFKKGLPQRKPRASQAEAANS,not soluble
15,SEKKECPEKSSSSEEELPRRDSGSSRNIDASKLIRLQGSRKLLVDNSIRELQYTKTGIFFQAEACVTNDTVYRELPCVSETLCDISHFFQEDDETEAEPLLFRAVPECQLSGGDIPSVSEEQESSEGQDSGDICSEENQIVSSYASKVCFEIEEDYKNRQFLGPEGNVDVELIDKSTNRYSVWFPTAGWYLWSATGLGFLVRDEVTVTIAFGSWSQHLALDLQHHEQWLVGGPLFDVTAEPEEAVAEIHLPHSISLQAGEVDVSWFLVAHFKNEGMVLEHPARVEPFYAVLESPSFSLMGILLRIASGTRLSIPITSNTLIYYHPHPEDIKFHLYLVPSDALLTKAIDDEEDRFHGVRLQTSPPMEPLNFGSSYIVSNSANLKVMPKWISSL,soluble
16,SEPTAPSLTEEDLTEVKKDALENLRVYLCEKIIAERHFDHLRAKKILSREDTEEISCRTSSRKRAGKLLDYLQENPKGLDTLVESIRREKTQNFLIQKITDEVLKLRNIKLEHLKGLKCSSCEPFPDGATNNLSRSNSDESNFSEKLRASTVMYHPEGESSTTPFFSTNSSLNLPVLEVGRTENTIFSSTTLPRPGDPGAPPLPPDLQLEEEGTCANSSEMFLPLRSRTVSRQ,soluble
17,SESICNSLNSKLEPTLENLENLDVSAFQAPEDLLDGCRIYLCGFSGRKLDKLRRLINSGGGVRFNQLNEDVTHVIVGDYDDELKQFWNKSAHRPHVVGAKWLLECFSKGYMLSEEPYIH,soluble
18,SESQSEEIDCNDKDLFKAVDAALKKYNSQNQSNNQFVLYRITEATKTVGSDTFYSFKYEIKEGDCPVQSGKTWQDCEYKDAAKAATGECTATVGKRSSTKFSVATQTCQITPAEGPVVTAQYDCLGCVHPISTQSPDLEPILRHG,soluble
